The series is described as follows: yeast display, Sf9 membrane polyspecificity reagent, FACS + sequencing; frameworks hold sequencing errors. The method in brief: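 Nanobodies came from a synthetic yeast display library in Saccharomyces cerevisiae BJ5465, induced with galactose for 36–48 hours and stained for 1 hour at 4 °C with 10% biotinylated, detergent-solubilized Sf9 membrane reagent. Cells were enriched on streptavidin microbeads and then FACS-sorted, with low and high (top ~1%) gates set on anti-HA fluorescence for expression and streptavidin fluorescence for reagent binding. Each polyreactivity label reflects the gate a clone came from. Genes were amplified by colony PCR, sequenced by MiSeq 2 × 250 and filtered by CDR length.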
“QVQLVESGGGLVQAGGSLRLSCAASGRIFVYNAMGWYRQAPGKERELVAGITASGGSTYYADSGKGRFTISRDNAKNTVYLQMNSLKPEDTAVYYCAATRYKRRYYYWGQGTQVTVSS”: the “polyreactivity (PSR sort gate)” value was “high polyreactivity”.

As to “QVQLVESGGGLVQAGGSLRLSCAASGLIFRTYTMGWYRQAPGKERELVATITRRGGTTYYADSVKGRFTISRDNAKNTVYLQMKSLKPEDTAVYYCAKSPYYTWKYDYWGQGTQVTVSS”, the “polyreactivity (PSR sort gate)” value was “high polyreactivity”.

As to “QVHLVESGGGLVQAGGSLRLSCAASGFIFYLYAMGWYRQAPGKERELVASITSSGRTNYADSVKGRFTISRDNAKNTVYLQMNSLKPEDTAVYYCNKRYSKGDEYYYWGQGTQVTVSS”, the “polyreactivity (PSR sort gate)” value is recorded as “high polyreactivity”.

Regarding “QFQHVESGGCLVQAGGSLRLSSAASGYMFYWYDMGWYRQAPGKERELVAVITSSGLSTYYADSVKGRFTISRDNAKNTVYLQMNSLKPEDTAVYYCNKANTQYSYYFYDYWGQGTQVTVSS”, the “polyreactivity (PSR sort gate)” value is given as “low polyreactivity”.

As to “QVQLVESGGGLVHAGGSLRLSCAASGFTFGSNAMGWYRQAPGKERELVAAISSRGGRTYYADSVKGRFTISRDNAKNTVYLQMNRLKPDDTAVYYCNADATVAWREQEYEYWGQGTQVSVSS”, the “polyreactivity (PSR sort gate)” value is “high polyreactivity”.

Turning to “QVQLVESGGGLVQAGGSLRLSCADSGITFWRYAMGWYRHAPGKERELVAAISWSGGNTYYADSVKGRFTISRDNAKNTVYLQMNSLKPEDTAVYYCATSRTYVIYDYWGQGTQVTVSS”, the “polyreactivity (PSR sort gate)” value was “low polyreactivity”.

For “QVQLVESGGGLVQAGGSLRLSCAASGYTFYINATGWYRQAPGKERELVAVITWSSGSTYYADSVKGRFTISRDNAKNTVYLQMNSLKPEDTAVYYCAADVTYEDGAWTIQYDYWGQGTQVTVSS”, the “polyreactivity (PSR sort gate)” value is reported as “high polyreactivity”.

For “QVQLVESGGGLVQAGGSLRLSCAASGRTFGRYAMGWYRQAPGKERELVAAISWTGGRTYYADSVKGRFTISRDNAKNTVYLQMNRLKPEDTAVYYCAALYDRNPAASRGYDSWGQGTQVTVSS”, the “polyreactivity (PSR sort gate)” value is given as “high polyreactivity”.

“QVQLVESGGGLVHSGGSLRLSCAASGSIFDYYAMGLYRQAPGKERELVAAISWRGGTTYYADSVKGRFTISRDNANNTVFLQMNRLKPEYTAVYYCNADKRFRRYDYWGQGNQVTVSS”: the “polyreactivity (PSR sort gate)” value is recorded as “high polyreactivity”.

In the case of “QVQLVESGGGLVQAGGSLRLSCAASGRTFVNYALGWYRQAPGKERELVAAISGGGGTNYADSVKGRFTISRDNAKNTVYLQMNSLKPEDTAVYYCNAVPSQHDEFDYWGQGTQVTVSS”, the “polyreactivity (PSR sort gate)” value is “low polyreactivity”.

Consider “QVQLVESGGGLVQAGGSLRLSCAASGRIFRFYAMGWSRQAPGKEREMVAVISTGGRTNYADSVKGRFTISRDNGKNTVYLQMNSLKPVDSAVYYCAAEYTNIGRYDGWNYNYWGQGTQVTVSS”, for which the “polyreactivity (PSR sort gate)” value was “high polyreactivity”.

Take “QVQLVESGGGLVQAGGSLRLSCAASGLIFYYNAMGWYRQAPGKERELVAAISSDGTTDYADSVKGRFTISRDNAKNTVYLQMNSLKPEDTAVYYCNADKAVKLSGYGRADYDYWGQGTQVTVSS”: the “polyreactivity (PSR sort gate)” value was “low polyreactivity”.

With “QVQLVESGGGLVQAGGSLRLSCAASGRTFRRYVMGWYRQAPGKERELVAAISYSGATTYYADSVKGRFTISRDNAKNTVYLQMNSLKPEDTAVYYCAATAPGDRYFWGQGTQVTVSS”, the “polyreactivity (PSR sort gate)” value is listed as “high polyreactivity”.

With “QVQLVESGGGLVQAGGSLRLSCAASGRTFNWYAMGWYRQAPGKERELVAAITQSGGITSYADSVKGRFTISRDNAKNTVYLQMNSLKPEDTAVYYCATTSRYSRSHYDWYDYWGQGTQVTVSS”, the “polyreactivity (PSR sort gate)” value is listed as “low polyreactivity”.

As for “QVQLVESGGGLVQAGGSLRLSCAASGSILSRYAMGWYRQAPGKERELVAAISSRGGSTYYADSVKGRFTISRDNAKNTVYLQMNSLKPEDTAVYYCAADPVGEVRVYARGYSWGQGTQVTVSS”, the “polyreactivity (PSR sort gate)” value was “high polyreactivity”.

For the sequence “QVQLVESGGGLVQAGGSLRLSCAASGRIFWVNVMGRYIQAPGKERELVPAITRGASTYADSVKGRFTISRDNAKNTVYLQMNSLKPEDTAVYYCAADTKRRSIRYDYWGEGTQVTVSS”, the “polyreactivity (PSR sort gate)” value is reported as “high polyreactivity”.

For “QVQLVESGGGLVQAGGSLRLSCAASGRNIHFNAMGWYRQAPGKERELVAGITFIGTSTYYADSVKGRFTISRDNAKNTVYLQMNSLKPDDTAVYYFAASAVALPYYAGDYDYWGQATQVTVSS”, the “polyreactivity (PSR sort gate)” value is “low polyreactivity”.

“QVQLVESGGGLVQAGGSLRLSCAASGSTFTGYAMGWSRQAPGKEREIVATITKRGGRTYYADSVKGRFTISRDNAKNTVYLQMNSLKPEDTAVYYCARDQGKLVVPYAYWGQGTQVTVSS”: the “polyreactivity (PSR sort gate)” value is “high polyreactivity”.

As for “QVQLVESGGGLVQAGGSLRLSCAASGRIYEYMGWYRQAPGKERELVAAISWRGGRTYYADSVKGRFTISRDNAKNTVYLQMNSLKPEDTAVYYCAAKTTYRYGYWGQGTQVTVSS”, the “polyreactivity (PSR sort gate)” value was “high polyreactivity”.

“QVQLVESGGGLVQAGGSLRLSCAASGSTSPRNAMGWYRQAPGKERELVAAISSGGRTNYADSVKGRFTISRDNAKNTVYLQMNSLKPEDTAVYYCAAEVQSTYWGQGTQVTVSS”: the “polyreactivity (PSR sort gate)” value was “low polyreactivity”.

“QVQLVESGGGLVQAGGSIRLSCAASGRTFPVNAMGWYRQAPGKERELVAAITTNGGRTYYADSVKGRFTISRDNEKNTVYLQMNSLKPEDTAVYYCATGAYTDKRYGYWGQGTQVTVSS”: the “polyreactivity (PSR sort gate)” value was “high polyreactivity”.

Take “QVQLEESVGGLVQAGGSLRLSCAASGITFYDYTMGWYRQAPGKERELVAAISSRGGSTYYADSVKGRFTISRDNAKNTVYLQMNSLKPEDTAVYYCNARYNSWRYLAQYNYWGQGTQVTVSS”: the “polyreactivity (PSR sort gate)” value is given as “high polyreactivity”.

Regarding “QVQLVESGGGLVQAVRSLRLSSAASGLTFGRNAMGWYRQAPGKERELVAAISRSGGRTSYADSVKGRFTISRDNAKNTVYLQMNSLKPEDTAVYYCAARSDVYTHDYWGQGTQVTVSS”, the “polyreactivity (PSR sort gate)” value was “high polyreactivity”.

Consider “QVKLKESVGGLVQAGGSLRLSCAASGSISATGNMGWYRQAPGEERELVAAINFGSNTYYADSVKGRFTISRDNAKNTVYLQKSGLKPEDTPVYYCAVDGCYVGPYYYWGQGTQVTVSS”, for which the “polyreactivity (PSR sort gate)” value was “high polyreactivity”.

Consider “QVQLVESGGGLVQAGGSLRLSCAASGRIFAYYAMGRYRQAPGKERELVAAITRSGARTYYADSVKGRFTISRDNAKNTVYLQMNSLKPEDTAVYYCAAEGVRIGTRYDYWGQGTQVTVSS”, for which the “polyreactivity (PSR sort gate)” value was “high polyreactivity”.

With “KVQLVESGGGLVQAGGSLRLSCAASGLILRRYAMGWSRQAPGKEREFVARITWSGSRTYYADSVKGRFTISRDYGKNTVYLQMKSLKPEDSAFYYCAAVGRLARRDYWGQGTQVSVSS”, the “polyreactivity (PSR sort gate)” value is “high polyreactivity”.

On to “QVQLVESGGGLVQAGGSLRLSCAASGRIFGYYAMGWYRQAPGKERELVAAISSSGGSTYYADSVKGRFTISRDNAKNTVYLQMNSLKPEDTAVYYCAREFSDGLSGKFDYWGQGTQVTVSS”, for which the “polyreactivity (PSR sort gate)” value is listed as “low polyreactivity”.

Consider “QVQLVESGGGLVQAGGSLRLSCAASGSIFWYYVMGWYRPAPGKERELVAAISNVSTYYADSVKGRFTISRDNAKNTVYLQMNSLKPEDTAVYYCAARGLLWYYSWRYYYWGQGTQVTVSS”, for which the “polyreactivity (PSR sort gate)” value is recorded as “low polyreactivity”.

For the sequence “QVQLVETGGGLVQAGVSLRISCAASGRTFSVYTMGWYRQAPGKERELVAAIRGRGGSTYYADSVKGRFTISRDNAKNTVYLQMNSLKPEDTAVYYCAARASIFGATFDYWGQGTQVTVSS”, the “polyreactivity (PSR sort gate)” value is “high polyreactivity”.

In the case of “QVHLEESCGGLVQAGGTLRLSCAASGSTFPRYVMGWYRQAPGKERELVAAITSGGSTYYADSVKGRFTISRDNAKNTVYLQMNRLKPEDTAVFYCAAGSYRVVWYDSWGQGTLVTVSS”, the “polyreactivity (PSR sort gate)” value was “high polyreactivity”.

On to “QVQLVESGGGLVQAGGSLRLSCAASGLIIKWYAMGWYRQAPGKERELVAAITRTGGSTYYADSVKGRFTISRDNAKNTVYLQMNSLKPEDTAVYYCADRPVYFRYIAYYDWTPSFDFWGQGTQVTVSS”, for which the “polyreactivity (PSR sort gate)” value is recorded as “low polyreactivity”.

For “QVQLVESGGGLVQAGGSLRLSCAASGSTFYYYAMGCYRQAPGKERELVASITTGGGSTYYADSVKGRFTISRDNAKNTVYLQLNSLKPEDTAVYYCGAALAYYYWWYDYWGQCTQVTVSS”, the “polyreactivity (PSR sort gate)” value is reported as “low polyreactivity”.

For the sequence “QVQLVESGGGLVQAGGSLRLRCASSGYIFTYYAMGWYRQAPGKERELVAAISWSGGRTYYADSVKGRFTISRDNAKITVYLQMNSLKPEDTAVYYCNAVDKRYPDMDYWGQGTQVTVSS”, the “polyreactivity (PSR sort gate)” value was “high polyreactivity”.

For the sequence “QVQLVESGGGLVQAGGSLRLSCADSVSIFRVNAKRWYTQAPGKERELVAGISSRGGTSTYYADSVKGRFTISRDNAKNTVYLQMNSLKPEDTAVYYCNKTDITTSRHDYWRQGTQVTVSS”, the “polyreactivity (PSR sort gate)” value was “low polyreactivity”.

Consider “QVQLVESGGGLVQAGGSLRLTCAASGGTFQVNAMGWYRQAPGKEMELVAAINRSGGGTTYADSVKGRFTISRDNAKNTVYLQMNSLKPEDTAVYYCAVDFYTYYYVEYGYWGQGTEVTVSS”, for which the “polyreactivity (PSR sort gate)” value is recorded as “high polyreactivity”.

With “QVHIVESGGGLVQAGGSLRISCAASGRILLLYDMGWYRQAPGKERELVAAINWDGGYSYADSVKGRFTISRDNANNTVFLQMNSLKPADTAVYYCAKDDIWEHYDYWGQGTQVTVSS”, the “polyreactivity (PSR sort gate)” value is listed as “low polyreactivity”.

Regarding “QVQLVESGGGLVQAGGSLRLSCAASGSTFRYIAMGWYRQAPGKERELVAAISRGGSTNYADSVKGRFTISRDNAKNSVYLQMNSLKPEDTAVYYCAASGTRRGTAVWRVKPGDYWGQGTQVTVSS”, the “polyreactivity (PSR sort gate)” value is listed as “high polyreactivity”.

On to “QVQLVESGGGLVQAGGSLRLSCAASGRTFGYNAMGWYREAPGKERELVPAITTSGGSTYYADSVKGRFTISRDNAKNSVYLQMNSRKPEDTAVYYCAADYSFFYRYTWLVYIFDYDYWGQGTQVTVSS”, for which the “polyreactivity (PSR sort gate)” value is “low polyreactivity”.

Consider “QVQLVESGGGLVQAGGSLRLSCAASGFTFERYTMGWYRPAPGKERELVATISRRSGRTSYADSVKGRFTISRDNAKNTVYLQMNSLKPEDTAVYYCAVDDAYPDRYDYWGQGTQVTVSS”, for which the “polyreactivity (PSR sort gate)” value was “high polyreactivity”.

On to “QVQIVESGRGLVQAGGSLRVSCAASGRTFTYNAMGWYRQAPGKERELVAAINGDGGSTYYADSVKVRFTISRDNAKNTVYLQMNSLKPEDTAVYYCNRPRIYRYGYWGQGTQVTVSS”, for which the “polyreactivity (PSR sort gate)” value is listed as “high polyreactivity”.

Take “QVQLVESGGGLVQAGGSLRLSCAASGITFYGYAMGWYRQAPGKERELVAAISSRGGSTYYADSVKGRFTISRDNAKNTVYLQMNRLKPEDTAVYYCAAVYYTGEYYYWGQGTQVTVSS”: the “polyreactivity (PSR sort gate)” value is on record as “high polyreactivity”.

Values taken from the nanobody polyreactivity screen of Harvey et al. (2022).
